Measurements reported in the supplement of paper PMC9112550, “Optimization of the antimicrobial peptide Bac7 by deep mutational scanning” (BMC Biology, 2022).

Test system: Escherichia coli TOP10
Assay: shrunken log2 fold change of peptide-encoding DNA abundance (4.5 h post-induction vs induction); higher = less antimicrobial activity (less host growth inhibition)
Settings: time post-induction: 4.5 h; library: site-saturation at positions 5, 18, 19, 20
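Note: peptides expressed intracellularly from a pBAD plasmid library in pooled LB shake-flask culture, induced with 0.3% L-arabinose, DNA abundance read by NGS, three biological replicates, DESeq2 with apeglm shrinkage.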

Row | Sequence | shrunken log2 fold change
1 | RRIRVRPPRLPRPRPRPPIRPRP | -0.0403
2 | RRIRVRPPRLPRPRPRPPKDPRP | 0.219
3 | RRIRVRPPRLPRPRPRPPKWPRP | 0.133
4 | RRIRVRPPRLPRPRPRPPLGPRP | 0.554
5 | RRIRVRPPRLPRPRPRPPLPPRP | 0.325
6 | RRIRVRPPRLPRPRPRPPQWPRP | 0.353
7 | RRIRVRPPRLPRPRPRPPRMPRP | 0.167
8 | RRIRVRPPRLPRPRPRPPSCPRP | 0.187
9 | RRIRVRPPRLPRPRPRPPVWPRP | 0.312
10 | RRIRVRPPRLPRPRPRPPWQPRP | 0.44
11 | RRIRVRPPRLPRPRPRPPYGPRP | 0.024
12 | RRIRVRPPRLPRPRPRPQAAPRP | 0.0662
13 | RRIRVRPPRLPRPRPRPQAWPRP | 0.416
14 | RRIRVRPPRLPRPRPRPQCQPRP | 0.148
15 | RRIRVRPPRLPRPRPRPQDWPRP | -0.132
16 | RRIRVRPPRLPRPRPRPQEDPRP | -0.467
17 | RRIRVRPPRLPRPRPRPQFDPRP | -0.00843
18 | RRIRVRPPRLPRPRPRPQFHPRP | -0.186
19 | RRIRVRPPRLPRPRPRPQGPPRP | 0.107
20 | RRIRVRPPRLPRPRPRPQHGPRP | 0.14
21 | RRIRVRPPRLPRPRPRPQHIPRP | -0.32
22 | RRIRVRPPRLPRPRPRPQHVPRP | -0.0853
23 | RRIRVRPPRLPRPRPRPQIDPRP | -0.321
24 | RRIRVRPPRLPRPRPRPQLCPRP | -0.143
25 | RRIRVRPPRLPRPRPRPQMMPRP | -0.0693

Row | Sequence | shrunken log2 fold change
26 | RRIRVRPPRLPRPRPRPQNQPRP | -0.388
27 | RRIRVRPPRLPRPRPRPQNRPRP | 0.112
28 | RRIRVRPPRLPRPRPRPQPWPRP | 0.152
29 | RRIRVRPPRLPRPRPRPQQIPRP | -0.119
30 | RRIRVRPPRLPRPRPRPQQRPRP | 0.0774
31 | RRIRVRPPRLPRPRPRPQRAPRP | 0.348
32 | RRIRVRPPRLPRPRPRPQSIPRP | -0.176
33 | RRIRVRPPRLPRPRPRPQTWPRP | -0.148
34 | RRIRVRPPRLPRPRPRPQVKPRP | -0.016
35 | RRIRVRPPRLPRPRPRPQVVPRP | -0.00557
36 | RRIRVRPPRLPRPRPRPQYSPRP | 0.0315
37 | RRIRVRPPRLPRPRPRPRAAPRP | 0.425
38 | RRIRVRPPRLPRPRPRPRALPRP | 0.307
39 | RRIRVRPPRLPRPRPRPRDLPRP | 0.0448
40 | RRIRVRPPRLPRPRPRPRFAPRP | 0.527
41 | RRIRVRPPRLPRPRPRPRGIPRP | 0.235
42 | RRIRVRPPRLPRPRPRPRGVPRP | 0.278
43 | RRIRVRPPRLPRPRPRPRHAPRP | 0.229
44 | RRIRVRPPRLPRPRPRPRHIPRP | -0.508
45 | RRIRVRPPRLPRPRPRPRHLPRP | -0.222
46 | RRIRVRPPRLPRPRPRPRHMPRP | 0.152
47 | RRIRVRPPRLPRPRPRPRHSPRP | 0.292
48 | RRIRVRPPRLPRPRPRPRIDPRP | -0.216
49 | RRIRVRPPRLPRPRPRPRIEPRP | 0.314
50 | RRIRVRPPRLPRPRPRPRIIPRP | -0.0581

Row | Sequence | shrunken log2 fold change
51 | RRIRVRPPRLPRPRPRPRLDPRP | 0.238
52 | RRIRVRPPRLPRPRPRPRLGPRP | 0.223
53 | RRIRVRPPRLPRPRPRPRLRPRP | 0.311
54 | RRIRVRPPRLPRPRPRPRNNPRP | -0.425
55 | RRIRVRPPRLPRPRPRPRQKPRP | 0.212
56 | RRIRVRPPRLPRPRPRPRQMPRP | 0.117
57 | RRIRVRPPRLPRPRPRPRQSPRP | 0.181
58 | RRIRVRPPRLPRPRPRPRRIPRP | -0.0306
59 | RRIRVRPPRLPRPRPRPRSPPRP | 0.342
60 | RRIRVRPPRLPRPRPRPRTVPRP | 0.16
61 | RRIRVRPPRLPRPRPRPRVPPRP | -0.00723
62 | RRIRVRPPRLPRPRPRPRWGPRP | 0.157
63 | RRIRVRPPRLPRPRPRPRYFPRP | -0.446
64 | RRIRVRPPRLPRPRPRPRYKPRP | -0.131
65 | RRIRVRPPRLPRPRPRPSCEPRP | -0.303
66 | RRIRVRPPRLPRPRPRPSCMPRP | -0.136
67 | RRIRVRPPRLPRPRPRPSDFPRP | -0.394
68 | RRIRVRPPRLPRPRPRPSETPRP | -0.14
69 | RRIRVRPPRLPRPRPRPSEWPRP | -0.0811
70 | RRIRVRPPRLPRPRPRPSFFPRP | -0.2
71 | RRIRVRPPRLPRPRPRPSHEPRP | -0.225
72 | RRIRVRPPRLPRPRPRPSHGPRP | -0.143
73 | RRIRVRPPRLPRPRPRPSHNPRP | -0.692
74 | RRIRVRPPRLPRPRPRPSHYPRP | -0.68
75 | RRIRVRPPRLPRPRPRPSIDPRP | -0.455

Row | Sequence | shrunken log2 fold change
76 | RRIRVRPPRLPRPRPRPSIEPRP | -0.255
77 | RRIRVRPPRLPRPRPRPSKAPRP | 0.0587
78 | RRIRVRPPRLPRPRPRPSKMPRP | -0.243
79 | RRIRVRPPRLPRPRPRPSKPPRP | -0.242
80 | RRIRVRPPRLPRPRPRPSLNPRP | -0.416
81 | RRIRVRPPRLPRPRPRPSPGPRP | 0.252
82 | RRIRVRPPRLPRPRPRPSRIPRP | 0.0876
83 | RRIRVRPPRLPRPRPRPSTWPRP | -0.184
84 | RRIRVRPPRLPRPRPRPSVRPRP | -0.297
85 | RRIRVRPPRLPRPRPRPSWCPRP | 0.123
86 | RRIRVRPPRLPRPRPRPSWNPRP | -0.371
87 | RRIRVRPPRLPRPRPRPTAKPRP | 0.0848
88 | RRIRVRPPRLPRPRPRPTFFPRP | 0.0435
89 | RRIRVRPPRLPRPRPRPTGDPRP | -0.0504
90 | RRIRVRPPRLPRPRPRPTHLPRP | 0.37
91 | RRIRVRPPRLPRPRPRPTIHPRP | -0.239
92 | RRIRVRPPRLPRPRPRPTIPPRP | -0.0501
93 | RRIRVRPPRLPRPRPRPTKEPRP | -0.0294
94 | RRIRVRPPRLPRPRPRPTLHPRP | 0.195
95 | RRIRVRPPRLPRPRPRPTMHPRP | -0.103
96 | RRIRVRPPRLPRPRPRPTMKPRP | -0.461
97 | RRIRVRPPRLPRPRPRPTNFPRP | -0.287
98 | RRIRVRPPRLPRPRPRPTNMPRP | -0.472
99 | RRIRVRPPRLPRPRPRPTPKPRP | 0.297
100 | RRIRVRPPRLPRPRPRPTPNPRP | 0.306

Row | Sequence | shrunken log2 fold change
101 | RRIRVRPPRLPRPRPRPTPRPRP | 0.859
102 | RRIRVRPPRLPRPRPRPTQAPRP | 0.55
103 | RRIRVRPPRLPRPRPRPTQTPRP | 0.0438
104 | RRIRVRPPRLPRPRPRPTRIPRP | 0.108
105 | RRIRVRPPRLPRPRPRPTTAPRP | 0.181
106 | RRIRVRPPRLPRPRPRPTTFPRP | -0.118
107 | RRIRVRPPRLPRPRPRPTTNPRP | 0.0416
108 | RRIRVRPPRLPRPRPRPVAPPRP | 0.242
109 | RRIRVRPPRLPRPRPRPVARPRP | 0.223
110 | RRIRVRPPRLPRPRPRPVDKPRP | -0.278
111 | RRIRVRPPRLPRPRPRPVECPRP | -0.286
112 | RRIRVRPPRLPRPRPRPVEYPRP | -1.63
113 | RRIRVRPPRLPRPRPRPVFAPRP | 0.217
114 | RRIRVRPPRLPRPRPRPVGRPRP | 0.542
115 | RRIRVRPPRLPRPRPRPVHAPRP | -0.189
116 | RRIRVRPPRLPRPRPRPVHNPRP | -0.404
117 | RRIRVRPPRLPRPRPRPVHVPRP | -0.0459
118 | RRIRVRPPRLPRPRPRPVHYPRP | -0.0353
119 | RRIRVRPPRLPRPRPRPVIKPRP | -0.138
120 | RRIRVRPPRLPRPRPRPVKDPRP | 0.0828
121 | RRIRVRPPRLPRPRPRPVKQPRP | -0.0475
122 | RRIRVRPPRLPRPRPRPVKRPRP | 0.0275
123 | RRIRVRPPRLPRPRPRPVKSPRP | -0.0272
124 | RRIRVRPPRLPRPRPRPVLHPRP | -0.243
125 | RRIRVRPPRLPRPRPRPVMMPRP | -0.938

Row | Sequence | shrunken log2 fold change
126 | RRIRVRPPRLPRPRPRPVNTPRP | -0.236
127 | RRIRVRPPRLPRPRPRPVPKPRP | 0.128
128 | RRIRVRPPRLPRPRPRPVPSPRP | -0.0143
129 | RRIRVRPPRLPRPRPRPVQMPRP | -0.0712
130 | RRIRVRPPRLPRPRPRPVTIPRP | -0.232
131 | RRIRVRPPRLPRPRPRPVTPPRP | 0.214
132 | RRIRVRPPRLPRPRPRPVWWPRP | -0.0476
133 | RRIRVRPPRLPRPRPRPVYHPRP | -0.544
134 | RRIRVRPPRLPRPRPRPVYSPRP | -0.0974
135 | RRIRVRPPRLPRPRPRPWAQPRP | -0.365
136 | RRIRVRPPRLPRPRPRPWAYPRP | -0.323
137 | RRIRVRPPRLPRPRPRPWCHPRP | -0.291
138 | RRIRVRPPRLPRPRPRPWCVPRP | -0.504
139 | RRIRVRPPRLPRPRPRPWEGPRP | 0.0112
140 | RRIRVRPPRLPRPRPRPWFSPRP | -0.128
141 | RRIRVRPPRLPRPRPRPWHAPRP | -0.109
142 | RRIRVRPPRLPRPRPRPWHHPRP | 0.0243
143 | RRIRVRPPRLPRPRPRPWHMPRP | -0.672
144 | RRIRVRPPRLPRPRPRPWHRPRP | -0.145
145 | RRIRVRPPRLPRPRPRPWHSPRP | -0.435
146 | RRIRVRPPRLPRPRPRPWIMPRP | -0.0202
147 | RRIRVRPPRLPRPRPRPWLGPRP | -0.0696
148 | RRIRVRPPRLPRPRPRPWMNPRP | -0.00133
149 | RRIRVRPPRLPRPRPRPWNNPRP | -0.204
150 | RRIRVRPPRLPRPRPRPWPKPRP | 0.0246
